For assay [1], the target named is IgE of the serum pool of subjects 14, 47 and 48 (human). The experiment in a line: cell-based or functional assay.
For assay [2], the target named is serum IgE of subject 2 (human). As to the kind of experiment: ELISA inhibition; serum of subject 2 preincubated with rSCP, IgE binding to plate-coated boiled shrimp extract. A general note: In an ELISA, binding on a coated surface is turned into a signal by an enzyme label.
Assay [3] addresses serum IgE of subject 43 (human). The experiment in a line: ELISA inhibition; serum of subject 43 preincubated with rSCP (printed 25 mg/mL), IgE binding to plate-coated boiled shrimp extract.

B1: recombinant shrimp sarcoplasmic calcium-binding protein (rSCP) (protein, not shown: small tags and cut ends)
chain: MAYSWDNRVKYVVRYMYDIDNNGFLDKNDFECLAVRNTLIEGRGEFSADAYANNQKIMRNLWNEIAELADFNKDGEVTVDEFKQAVQKHCQGKKYGDFPGAFKVFIANQFKAIDVNGDGKVGLDEYRLDCITRSAFAEVKEIDDAYNKLTTEDDRKAGGLTLERYQDLYAQFISNPDESCSACYLFGPLKVVQ
Take B1: the mediator release (beta-hexosaminidase) from RBL-2H3 cells (% of total possible release) in assay [1] was 30. This molecule registered a mediator release (beta-hexosaminidase) from RBL-2H3 cells in assay [1] (scale: % of the release obtained with BS extract) of 65. Also, the maximal inhibition in assay [2] amounted to 48%; in assay [3], 79%.
